Biological target: the molecule itself
Test: FRET or BRET

B1: GPVI BRET pair (GPVI-GFP and GPVI-luciferase) (receptor, UniProt Q9HCN6 21-339, looked up)
chain: QSGPLPKPSLQALPSSLVPLEKPVTLRCQGPPGVDLYRLEKLSSSRYQDQAVLFIPAMKRSLAGRYRCSYQNGSLWSLPSDQLELVATGVFAKPSLSAQPGPAVSSGGDVTLQCQTRYGFDQFALYKEGDPAPYKNPERWYRASFPIITVTAAHSGTYRCYSFSSRDPYLWSAPSDPLELVVTGTSVTPSRLPTEPPSPVAEFSEATAELTVSFTNEVFTTETSRSITASPKESDSPAGPARQYYTKGNLVRICLGAVILIILAGFLAEDWHSRRKRLRHRGRAVQRPLPPLPPLPLTRKSNGGQDGGRQDVHSRGLCS
  stoichiometry N: 2

— paper PMC1869045 (Journal of thrombosis and haemostasis : JTH, 2007)
